Assay in all cases: cell-based or functional assay
The target of assay [1] is T1, glucagon receptor (UniProt P47871 26-477, limits assumed).
Assay [2] deals with T2, GLP-1 receptor (UniProt P43220 24-463, limits assumed).
The target in assay [3] is T1, glucagon receptor. This is another data set of the same source.
In assay [4] the target is T2, GLP-1 receptor. This is another data set of the same source.
The target of assay [5] is T1, glucagon receptor. The source holds these as a separate data set.
Assay [6] has as its target T2, GLP-1 receptor. This is another data set of the same source.
Assay [7] deals with T1, glucagon receptor. This is another data set of the same source.
Assay [8] addresses T2, GLP-1 receptor. The source holds these as a separate data set.
In assay [9] the target is T2, GLP-1 receptor. The source holds these as a separate data set.
Assay [10] concerns the target T1, glucagon receptor. This is another data set of the same source.
Assay [11] deals with T2, GLP-1 receptor. The source holds these as a separate data set.
In assay [12] the target is T2, GLP-1 receptor. This is another data set of the same source.

This note sets out measurements from patent US20120172295A1 (INDIANA UNIVERSITY RESEARCH AND TECHNOLOGY, published 2012).

Read-outs that look alike come from different tables or passages of the source. Positions of bridges follow the written chain, without caps; N, C: chain ends. Non-standard residues stand in square brackets, D forms with d. Groups on a side chain read outwards from the residue. Primed or numbered codes have the meaning given here. No end group written: not given here. *: point of attachment. PEG 40 kDa″ = 40 kDa polyethylene glycol; Stearoyl = CCCCCCCCCCCCCCCCCC(=O)*; Palmitoyl = CCCCCCCCCCCCCCCC(=O)*; Myristoyl = CCCCCCCCCCCCCC(=O)*; Aib = CC(C)(N)C(=O)O

T1 sequence (P47871 26-477 limits assumed): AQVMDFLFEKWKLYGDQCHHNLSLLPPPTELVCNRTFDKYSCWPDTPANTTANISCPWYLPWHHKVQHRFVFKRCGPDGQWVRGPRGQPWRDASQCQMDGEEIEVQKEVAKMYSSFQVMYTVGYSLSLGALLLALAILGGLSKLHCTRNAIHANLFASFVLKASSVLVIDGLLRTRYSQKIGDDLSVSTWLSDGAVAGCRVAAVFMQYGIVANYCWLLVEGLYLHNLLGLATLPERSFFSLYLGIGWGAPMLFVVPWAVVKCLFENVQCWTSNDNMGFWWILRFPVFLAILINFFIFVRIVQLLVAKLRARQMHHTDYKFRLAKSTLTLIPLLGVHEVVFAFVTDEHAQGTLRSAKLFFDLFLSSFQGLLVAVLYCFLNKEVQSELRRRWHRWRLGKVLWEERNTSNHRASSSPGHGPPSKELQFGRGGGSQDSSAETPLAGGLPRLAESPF

With HSQGTFTSDYSKYLDEQAAKEFIEWLVKG-NH2 [E16 GLP(17-29)-NH2 E24, K28], the “cAMP induction EC50” value in [1] was 0.23 nM; in assay [2], 7 pM.

In the case of HSQGTFTSDK(Stearoyl)SKYLDERRAKDFVC(PEG 40 kDa)WLMNT-NH2 [E16 K20-glucagon-NH2 with K10-C18 and C24-40K PEG (SEQ ID NO: 547)], the EC50 in assay [3] came out at 0.84 nM; in assay [4], 0.15 nM; in assay [5] it was 0.84 nM; in [6] it was 0.15 nM.

For HSQGTFTSDK([Glu-Palmitoyl])SKYLDERRAKDFVQWLMNT-NH2 [Peptide D (Example 22)], the values for the EC50 in assay [7] and in [8] were 0.062 nM and 0.056 nM, respectively.

As for HSQGTFTSDYSKYLDEQAAKEFIAWLVKG-NH2 [E16 GLP(17-29)-NH2], the “cAMP induction EC50” value in assay [1] is 0.46 nM; in [2], 10 pM.

Consider HSQGTFTSDK(Stearoyl)SKYLDERRAKDFVQWLMNT-NH2 [E16 K20-glucagon-NH2 with K10-C18], for which the results for the EC50 in assay [9] and in assay [8] were 0.03 nM and 0.032 nM, respectively.

B1: Peptide 77** (SEQ ID NO: 616) (peptide)
peptide: H[Aib]QGTFTSDK(Myristoyl)SKYLD[Aib]RRAQDFVCWLMNT-NH2
modifications: N-terminus assumed
SMILES: CCCCCCCCCCCCCC(=O)NCCCC[C@H](NC(=O)[C@H](CC(=O)O)NC(=O)[C@H](CO)NC(=O)[C@@H](NC(=O)[C@H](Cc1ccccc1)NC(=O)[C@@H](NC(=O)CNC(=O)[C@H](CCC(N)=O)NC(=O)C(C)(C)NC(=O)[C@@H](N)Cc1c[nH]cn1)[C@@H](C)O)[C@@H](C)O)C(=O)N[C@@H](CO)C(=O)N[C@@H](CCCCN)C(=O)N[C@@H](Cc1ccc(O)cc1)C(=O)N[C@@H](CC(C)C)C(=O)N[C@@H](CC(=O)O)C(=O)NC(C)(C)C(=O)N[C@@H](CCCNC(=N)N)C(=O)N[C@@H](CCCNC(=N)N)C(=O)N[C@@H](C)C(=O)N[C@@H](CCC(N)=O)C(=O)N[C@@H](CC(=O)O)C(=O)N[C@@H](Cc1ccccc1)C(=O)N[C@H](C(=O)N[C@@H](CS)C(=O)N[C@@H](Cc1c[nH]c2ccccc12)C(=O)N[C@@H](CC(C)C)C(=O)N[C@@H](CCSC)C(=O)N[C@@H](CC(N)=O)C(=O)N[C@H](C(N)=O)[C@@H](C)O)C(C)C
For the molecule B1, the EC50 in assay [10] is 0.144 nM; in assay [11] it was 0.063 nM.

With H[Aib]QGTFTSDK(Stearoyl)SKYLDEQAAKEFIC(PEG 40 kDa″)WLMNT-NH2 [C18 acylated Glucagon analog peptide (SEQ ID NO: 537)], the EC50 amounted to 0.0118 nM in assay [12] and 8.55 nM in assay [5].

B2: Peptide 81** (SEQ ID NO: 618) (peptide)
peptide: H[Aib]QGTFTSDK([Ala-Ala-Myristoyl])SKYLD[Aib]RRAQDFVCWLMNT-NH2
modifications: N-terminus assumed
SMILES: CCCCCCCCCCCCCC(=O)N[C@@H](C)C(=O)N[C@@H](C)C(=O)NCCCC[C@H](NC(=O)[C@H](CC(=O)O)NC(=O)[C@H](CO)NC(=O)[C@@H](NC(=O)[C@H](Cc1ccccc1)NC(=O)[C@@H](NC(=O)CNC(=O)[C@H](CCC(N)=O)NC(=O)C(C)(C)NC(=O)[C@@H](N)Cc1c[nH]cn1)[C@@H](C)O)[C@@H](C)O)C(=O)N[C@@H](CO)C(=O)N[C@@H](CCCCN)C(=O)N[C@@H](Cc1ccc(O)cc1)C(=O)N[C@@H](CC(C)C)C(=O)N[C@@H](CC(=O)O)C(=O)NC(C)(C)C(=O)N[C@@H](CCCNC(=N)N)C(=O)N[C@@H](CCCNC(=N)N)C(=O)N[C@@H](C)C(=O)N[C@@H](CCC(N)=O)C(=O)N[C@@H](CC(=O)O)C(=O)N[C@@H](Cc1ccccc1)C(=O)N[C@H](C(=O)N[C@@H](CS)C(=O)N[C@@H](Cc1c[nH]c2ccccc12)C(=O)N[C@@H](CC(C)C)C(=O)N[C@@H](CCSC)C(=O)N[C@@H](CC(N)=O)C(=O)N[C@H](C(N)=O)[C@@H](C)O)C(C)C
The molecule B2 had an EC50 in assay [11] of 0.018 nM.

HSQGTFTSDK([Trp-Palmitoyl])SKYLDERRAKDFVQWLMNT-NH2 [E16 K20-glucagon-NH2 with K10-W-C16]: it took 0.05 nM to reach a half-maximal effect in assay [9] (EC50).

In the case of HSQGTFTSDK([Trp-Palmitoyl])SKYLDERRAKDFVC(PEG 40 kDa)WLMNT-NH2 [E16 K20-glucagon-NH2 with K10-W-C16 and C24-40K PEG (SEQ ID NO: 546)], the EC50 worked out at 0.52 nM in assay [3], 0.23 nM in assay [4], 0.54 nM in assay [5] and 0.23 nM in assay [6].

B3: E16 GLP(17-29)-NH2 E24, K28 Lactam (peptide)
peptide: HSQGTFTSDYSKYLDEQAAKEFIEWLVKG-NH2
modifications: lactam 24-28; N-terminus assumed
SMILES: CC[C@H](C)[C@H](NC(=O)[C@H](Cc1ccccc1)NC(=O)[C@H](CCC(=O)O)NC(=O)[C@H](CCCCN)NC(=O)[C@H](C)NC(=O)[C@H](C)NC(=O)[C@H](CCC(N)=O)NC(=O)[C@H](CCC(=O)O)NC(=O)[C@H](CC(=O)O)NC(=O)[C@H](CC(C)C)NC(=O)[C@H](Cc1ccc(O)cc1)NC(=O)[C@H](CCCCN)NC(=O)[C@H](CO)NC(=O)[C@H](Cc1ccc(O)cc1)NC(=O)[C@H](CC(=O)O)NC(=O)[C@H](CO)NC(=O)[C@@H](NC(=O)[C@H](Cc1ccccc1)NC(=O)[C@@H](NC(=O)CNC(=O)[C@H](CCC(N)=O)NC(=O)[C@H](CO)NC(=O)[C@@H](N)Cc1c[nH]cn1)[C@@H](C)O)[C@@H](C)O)C(=O)N[C@H]1CCC(=O)NCCCC[C@@H](C(=O)NCC(N)=O)NC(=O)[C@H](C(C)C)NC(=O)[C@H](CC(C)C)NC(=O)[C@H](Cc2c[nH]c3ccccc23)NC1=O
With B3, the “cAMP induction EC50” value in assay [1] is 0.16 nM; in [2], 7 pM.

Consider HSQGTFTSDYSKYLDEQAAKEFIAWLMNT-NH2 [E16 GLP(17-26)Glu(27-29)-NH2], for which the “cAMP induction EC50” value came to 0.076 nM in [1] and 14 pM in assay [2].

Take HSQGTFTSDYSKYLDEQAAKEFIC(PEG 40 kDa)WLMNT-NH2 [Chimera 2 Cys24 (40K)]: the EC50 in assay [5] worked out at 2.83 nM; in [6], 0.04 nM.

Take HSQGTFTSDK([Trp-Stearoyl])SKYLDERRAKDFVC(PEG 40 kDa)WLMNT-NH2 [E16 K20-glucagon-NH2 with K10-W-C18 and C24-40K PEG (SEQ ID NO: 548)]: the concentration for a half-maximal effect (EC50) came to 1.3 nM in [3], 1.64 nM in assay [4], 1.29 nM in assay [5] and 1.64 nM in [6].

Usually EC50 stands for the concentration at which the effect is half-maximal. Lower therefore signals a more potent agent.
